From patent US20060246071A1 (AstraZeneca / MedImmune, published 2006)

T1: recombinant human Angiopoietin-2 (human, UniProt O15123 19-496)
T1 construct: also called Ang-2; rhAng-2
T1 sequence: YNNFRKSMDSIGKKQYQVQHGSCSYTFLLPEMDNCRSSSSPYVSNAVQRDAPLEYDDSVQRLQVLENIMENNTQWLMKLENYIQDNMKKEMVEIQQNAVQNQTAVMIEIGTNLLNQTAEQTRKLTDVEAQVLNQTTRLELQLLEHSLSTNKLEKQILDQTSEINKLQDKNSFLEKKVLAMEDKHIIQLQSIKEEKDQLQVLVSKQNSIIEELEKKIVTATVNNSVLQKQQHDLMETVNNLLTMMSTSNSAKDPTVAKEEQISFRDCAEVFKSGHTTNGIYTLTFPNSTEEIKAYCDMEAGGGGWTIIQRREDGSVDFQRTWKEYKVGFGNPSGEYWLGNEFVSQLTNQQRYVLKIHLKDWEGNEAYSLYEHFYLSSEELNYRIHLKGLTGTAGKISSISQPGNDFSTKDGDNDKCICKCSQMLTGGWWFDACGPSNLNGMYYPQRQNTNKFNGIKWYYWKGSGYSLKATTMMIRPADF

T2: mouse Angiopoietin-2 (mouse, UniProt O35608 19-496)
T2 construct: Secreted into the supernatant of HEK293F/293T cells transfected with the full-length open reading frame of 496 amino acids (GenBank BC027216); also called mAng-2; mouse Ang-2
T2 sequence: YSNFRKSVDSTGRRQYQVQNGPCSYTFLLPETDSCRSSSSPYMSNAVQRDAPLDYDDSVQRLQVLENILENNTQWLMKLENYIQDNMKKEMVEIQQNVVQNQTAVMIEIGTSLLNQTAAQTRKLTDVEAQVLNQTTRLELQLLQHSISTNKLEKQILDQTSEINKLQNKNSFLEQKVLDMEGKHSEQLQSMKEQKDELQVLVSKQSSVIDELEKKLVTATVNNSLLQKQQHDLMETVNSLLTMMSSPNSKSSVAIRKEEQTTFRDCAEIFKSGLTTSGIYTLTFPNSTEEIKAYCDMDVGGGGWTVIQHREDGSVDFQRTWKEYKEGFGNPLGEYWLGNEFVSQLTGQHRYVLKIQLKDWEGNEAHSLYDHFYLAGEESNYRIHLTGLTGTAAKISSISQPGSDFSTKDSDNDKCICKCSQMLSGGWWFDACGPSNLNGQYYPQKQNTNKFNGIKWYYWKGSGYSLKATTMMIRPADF


Legend:
[1] = target: T1, recombinant human Angiopoietin-2; assay: competition ELISA, Ang-2 on coated Tie2/Fc
Method: 96-well Nunc Immplates™ were coated with 100 μl of recombinant human Tie2/Fc fusion protein (R&D Systems, Inc., Cat. No. 313-TI-100) at 4 μg/ml by incubating overnight at 4° C. The plates were washed four times using Phosphate Buffer Saline (PBS) with a Skan™ Washer 300 station (SKATRON). The wells were blocked by 100 μl of ABX-blocking buffer (0.5% BSA, 0.1% Tween, 0.01% Thimerosal in PBS) for 1 hour.
The plates were incubated at room temperature for two hours before the unbound molecules were washed off. […] After washing twice, the bound Streptavidin was detected by HRP substrate (R&D Systems, Cat. No. DY998). The plates were incubated for 30 minutes before 450 stop solution (100 μl/well, BioFX, Cat #BSTP-0100-01) was added to terminate the reaction. The light absorbance at 450 nm was determined by a Spectramax Plus reader.
Each concentration of the mAb was tested in duplicate. The concentration-response relationship was found by curve fitting using Graphpad Prism™ graphic software (non-linear, Sigmnoid curve). The maximal inhibition (efficacy) and IC₅₀ (potency) were calculated by the software.

mouse Angiopoietin-2 [2] = target: T2, mouse Angiopoietin-2; assay: competition ELISA: mAb titrated with mouse Ang-2 supernatant on plates coated with human Tie2/Fc; blocked partner: human Tie2/Fc
Method: (§1) For this purpose, an ELISA plate was coated with 4 μg/ml of hTie2/Fc (R&D Systems, Inc.) at 100 μl/well, and the wells were blocked as routine at 4° C. overnight.
(§2) Each concentration of the mAb was tested in triplicate. […] OD650 was determined 30 min after the HRP substrate was added.

mouse Angiopoietin-2 [3] = target: T2, mouse Angiopoietin-2; assay: direct ELISA on plates coated with conditioned medium of HEK293F/mouse Ang-2 transfectants, detection with anti-human Fc-HRP
Method: The plates were incubated at 4° C. overnight, followed by washing four times using Phosphate Buffer Saline with a Skan Washer 300 station (SKATRON). The wells were blocked by 100 μl of ABX-block buffer (0.5% BSA, 0.1% Tween, 0.01% Thimerosal in PBS) for 1 hour. […] The mAbs and each of their dilutes were tested in duplicate. […] To set up the detecting chromagenic reaction, 100 μl of TMB substrate (TMB-microwell, BioFX, Cat. No. TMSK-1000-01) was added after washing the wells three times using PBS. The plates were incubated for 30 minutes before 650 stop solution (100 μl/well, BioFX, Cat. No. BSTP-0100-01) was added to terminate the reaction.

[4] = target: T1, recombinant human Angiopoietin-2; assay: competition ELISA: mAb titrated with recombinant human Ang-2 on plates coated with human Tie2/Fc; blocked partner: human Tie2/Fc
Method: as §1, §2

Efficacy (ratio of bound Ang-2 with mAbs (30 µg/ml) versus without mAbs) [1] | Binder | also measured
0.232 | mAb 5.103.1 (antibody, V domains shown, Variable regions only; hybridoma-derived fully human IgG kappa; also called x5.103*) VH: QVQLVQSGAEVKKPGASVKVSCKASGYTFTGYYLYWVPQAPGQGLEWMGWISPNSGGTNYAQKFQGRVTMTRDTSISTAYMELSRLRSDDTAVYYCARDQVIAVAGPFDYWAQGTLVTVSS VL: not shown | –
0.384 | mAb 5.86.1 (antibody, V domains shown, Variable regions only; hybridoma-derived fully human IgG kappa; also called x5.86) VH: QVQLVQSGAEVKKPGASVKVSCKASGYTFTGYHMYWVRQAPGQGLEWLGWINPNSGGTNYAQKFQGRVTMTRDTSISTAYMELSRLRSDDTAVYYCVRDQGIAAAGPFDYWCQGTLVTVSS VL: DIRMTQSPSSLSASVGDRVTITCRASQRISTYLNWYQQKPGKAPKFLIYAASSLQSGVPSRFSGSGSGTDFTLTISSLQPEDFATYYCQQSYTTPFTFGPGTKVDIKR | –
0.388 | mAb 3.3.2 (antibody, V domains shown, Variable regions only; hybridoma-derived fully human IgG kappa; also called 3.3.1; x3.3) VH: EVQLVESGGGLVQPGGSLRLSCAVSGFTFSSYWMSWVRQAPGKGLEWVANIKQDGSEKYYVDSVKGRFTISRDNAKNSLYLQMNSLRAEDTAVYYCARDQGIAVAGPFDYWGQGTLVTVSS VL: EIVMTQSPATLSVSPGERATLSCRASQTVSSDLAWYQQKPGQAPRLLIYGASIRATGIPARFSGSGSGTEFTLTISSLQSEDFAVYSCQQYYNWWTFGQGTKVEIKR | –
0.375 | mAb 3.31.2 (antibody, V domains shown, Variable regions only; hybridoma-derived fully human IgG kappa; also called x3.31*) VH: EVQLVESGGGLVQPGGSLRLSCAASGFTFSSYWMSWVRQAPGKGLEWVANIKQDGSDKYYVDSVKGRFTISRDNAKNSLYLRMNSLRAEDTAVFYCARDMGSGWFDYWGQGTLVTVSS VL: EVVMTQSPATLSVSPGERATLSCRASQSVGSNLAWYQQKPGQAPRLLIYGASTRATGIPARFSGSGSGTEFTLTISSLQSEDFAVYCCQQYNHWWTFGQGTKVEIKR | –
0.403 | mAb 5.88.3 (antibody, V domains shown, Variable regions only; hybridoma-derived fully human IgG kappa; also called x5.88*) VH: EVQMVESGGGLVQPGGSLRLSCAASGFTLRSYWMSWVRQAPGKGLEWVANIKEDGSEKYHVDSVKGRFTISRDNAENSLFLQMSSLRAEDTAVYYCARDMEASAGLFDYWGQGTLVTVSS VL: EIVMTQSPATLSVSPGERAILSCRASQSISSNLAWYQQKPGQAPRLLIYGASTRATGIPARFSGSGSGTEFTLTISSLQSEDFAVYYCQQYNYWWTFGQGTKVEIKR | –
0.364 | mAb 5.101.1 (antibody, V domains shown, Variable regions only; hybridoma-derived fully human IgG kappa; also called x5.101) VH: not shown VL: EIVMTQSPATLSVSPGERATLSCRASQSLISNLAWYQQKPGQAPRLLIFGASTRATGIPARFSGSGSGTEFTLTISSLQSEDFAVYYCHQYNNWWTFGQGTKVEIKR | –
0.395 | mAb 3.19.3 (antibody, V domains shown, Variable regions only; hybridoma-derived fully human IgG kappa; also called x3.19) VH: QVQLVESGGGVVQPGRSLRLSCAASGFTFTNYGMHWGRQAPGKGLEWVAVISHDGNNKYYVDSVKGRFTISRDNSKNTLYLQMNSLRAEDTAVYYCAREGIDFWSGLNWFDPWGQGTLVTVSS VL: EIVLTQSPGTLSLSPGERATLSCRASQSITGSYLAWYQQKPGQAPRLLICGASSWATGIPDRFSGSGSGTDFTLTISRLEPEDFAVYYCQQYSSSPITFGQGTRLEIKR | IC50 (read off the curve) (mouse Angiopoietin-2 [2]): ~2 µg/mL; EC50 (read off the curve) (mouse Angiopoietin-2 [3]): ~1 µg/mL; IC50 (read off the curve) [4]: ~0.7 µg/mL
0.389 | mAb 5.28.1 (antibody, V domains shown, Variable regions only; hybridoma-derived fully human IgG kappa; also called x5.28) VH: EVQLVESGGIVVQPGGSLRLSCAASGFTFDDYTMHWVRQTPGKGLEWVSLISWDGGSTYYADSVKGRFTISRDNSKNSLYLQMNSLRTEDTALYYCAKDIDIAVAGTGFDHWGQGTLVTVSS VL: EIVMTQSPATLSVSPGERATLSCRASQSVTSNLAWYQQKPGQAPRLLIYGALIRATGIPARFSGSGSGTEFTLTISSLQSEDFAVYYCQQYNNWPFTFGPGTKVDIKR | –
